Results reported in the DeepSol protein solubility set.

Assay: soluble on expression in E. coli; label from the status in PepcDB or PDB records

| Sequence | soluble on expression in E. coli |
| --- | --- |
| MGSDKIHHHHHHMNFEIPQSLIHPLLALIQAESPLARQLREHGVCHGNMVVSARLFDAQSLSSLYTLSKAQNERELLFQMLALDNIYNAPQARTIPGLEMLVAGLIAYLSRDAIDGWLYQRSRDGVLLPWLVQRIRHVEPEQGMPYVAIDMLANTMLSANSEQTDPTRRRSGMTTSIIVTRDEIVDRTIPELLAEFGFFKECAEFRREYEIHAQRFVRYQRSFGAQFIATRAGFTVEGKNTVALARIADGVTARCINDEERLERRFEMNCDAEFWRRAGVVSGFEKVPLHGYVHLFHLEWHQNIWVHVQHLSEYKYRPELRDKLVLPDHHRDLIDILTSHMDVLVQDFVPGKSGGTTILCQGAPGLGKTLTAEIYAEVVGKPLYRVHSGQLGTTAASVGATLMEILRRAMRWNAVLLLDEADVYIRRRDNDLEHNAIVAEFLRTLEYFSGLLFMTTNRTGDVDDAILSRCIATIQYETPCREDAARLWRLQADQCGVSLQDELVDALTAAYPKASGRDIKELMKLATRYSEAKQIALSEDVFRLCAQFRAIE | not soluble |
| MGSDKIHHHHHHMNFEKIEQAYDLLLENVQTIQNQLGTNIYDAMIEQNAAYVANQHETDLVVNNNQTLKQLDLTKEEWRRAYQFLLIKANQTEPMQYNHQFTPDSIGFILSFLVDQLVPTQKVTVLEIGSGTGNLAQTILNASQKDLDYLGIEVDDLLIDLSASIADVMQADISFAQGDAVRPQILKESQVILGDLPIGYYPDDQIASRYQVASPNEHTYAHHLLMEQSLKYLEKDGFAILLAPNDLLTSPQSDLLKGWLQEQANIVAMIALPPNLFGKAAMAKSIFVLQKKAARSLTPFVYPLQSLQEPEAIQKFM | not soluble |
| MGSDKIHHHHHHMNFEVLVKHISTIQNTLQAQAAHAVNLALTSRNWLMGCYIVEFEQNGEDRAAYGEQLLKKLEQRLKTKGLNERRFREFRRLYLVYPQLKESVTQYIASQIQIRQSLTAEFTEPIRRLVTAESENGVWKLSTEHPQTETWMIPADRLFNRLSSTHLNTISGIENPIKRAFYEMETIRGCWSVKELERQIASLYYERSGLSKNKEALSALVQQQVTLLQPKDVINTPVTLEFLGLNERALVTENDLEQSILDNLQHFLLEMGHGFCFEARQKRILIDEDYFFADLVFYHRILKCHIIVELKIDKFRHEYASQLNMYLNYFKAEVMQPDDNPPIGILLCTEKGDTLVKYATAGLDPNIFVQKYMIELPSEEEIKRFILGVNF | not soluble |
| MGSDKIHHHHHHMNGKLQSSDVKNETPYNIPLLINENVISSGISLISLWHTYADEHYRVIWPRDKKKPLIANSWVAVYTVQGCGKILLKNGEQITLHSNCIIFLKPMDIHSYHCEGLVWEQYWMEFTPTSMMDIPVGQQSVIYNGEIYNQELTEVAELITSPEAIKNNLAVAFLTKIIYQWICLMSADGKKDPQRRQIEKLIATLHASLQQRWSVADMAATIPCSEAWLRRLFLRYTGKTPKEYYLDARLDLALSLLKQQGNSVGEVADTLNFFDSFHFSKAFKHKFGYAPSAVLKNTDQHPTDASPHN | not soluble |
| MGSDKIHHHHHHMNGQPLIQVSDFEGPLDLLLHLIKTNEMDIYDIRISTITSQYLTYLHQMQLVRLDVAGEYFVMAANLMAIKAKLLLPKPQSVVPVDEDEPADPREELVNQLLEYQRYKQAAQALKQRALERQQHFTRPAMAVPESVELTVAPGIKPVDLQTALVRLMQRATLAKPVTQSVHQEHFTIKRQMTTILQRLKGTTAPVAFEQLLVTHPVMEEVVTTFLAVLELARQRQVQLQQAGRLAPLQVNFLQMEGRFSTDVTSSTD | not soluble |
| MGSDKIHHHHHHMNILVDLTQIPIQKVGVGVYAKETFKFPNEDANELFFLLQDDDNDLRSTFLKSKIILVKSKFFRFFFCRFLLEQFYIPFLCYKYKINILHSLHYSFPIFLFKVKRIVTIHDLTFFIHPSVHTFIKRYYFRLFIKLACRYADRLICVSESTKKDLERICGRRSVSIDVIPLSCSPKMQVGEQELELVKKKFGVVSQYMLFIGTLEPRKNILNLINAFYKFSQKNRDYSLVIIGKKGWFYESIFKLVEELHLERSVVFTGFVTTKEKFILLSGAHSFIYPSIYEGFGLPVLEAITYGIPTITSKLSSLPEVAGNAALYINPYDVQSISDAIESVNCDEETRRKLIKNSEKQRLKYSWKKTANLTYSLYNRCGSI | not soluble |
| MGSDKIHHHHHHMNIQDLRYFHELVNLKSYTKTAEKFGVSQPTITAAVKRLENRFGGTFLIRDQPHKSIIITRLGVQFDEHVQSILNEINIVEEEIKQNQNASIPFGLPPIIGRNYFPKIVSQLFAKGLLHRLNVIENGSYDLYHLLLEGYINFSMLGLTKVNVEPGIKLEVVKSYPMCIVVSKTHPLATKKAISFKEIANENFIGLSSDYIHTKALDRMLKKSKINLNTIYRSPDVTVVKNIVAQNLGISYLTTLSITENDDVISIPLLDKDQPKFILAAATRENHIMTDAEEEFWEILTQISLRRQVLTSTLPS | not soluble |
| MGSDKIHHHHHHMNKNPEIQFRSPEEIKAYQESRLAEELLYLQNHSRFYQHLFQAYHIDIQQIKTIEDLQQIPVTTKTDLQLHNEDFICVSRDEIIDYVTTSGTLGDPVTFVLTSEDLDRLAYNEYLSFTTTGCSRQDILQLMTTIDRRFMAGLAYYMGARELGMGVARVGNGIPELQWDTIRRIHPTCGMVVPSFLIKLIEFAEKNHIDYHHCSMQKCVCIGEALRNPDFTLNTLGKRIHEKWDSLQLYSTYASTEMQSSFTECNEFHGGHLQPELIIVEFLDDNNQPVKEGEAGEVTITTLGVRGMPLLRFKTGDICYHYTEPCACGRNTIRLSSILGRKGQMIKYKGTTLYPPALFDILDNIPHIKNYIVEVYTNELGTDEILIRIGSENRSEAFAKEIKDLFRSKVRVAPSINFESAEYIAKIQMPPMSRKIVKFIDLR | not soluble |
| MGSDKIHHHHHHMNLFSPHLKRNELIKFAKELDFSKSQDLLINVHRNHAFEGVQSIIAPFLHFANLRAEFNFSSYDDSLSFDNFKEASLELLWLDLTRYKNNVQNFIEERLLELRKISQNPILVLSLGEFKTDKKILNCEIFNIEKLIKEYFDEEDILDLAKEELTGSKLNNKALIFLAQILGLSLIPALVKPALKALVLDLDNTLYQGILGEEGIDNLNLSPLHKTLQEKIKTFKKQGFLLALASKNEEKDAKKLFEIRKDFILQWDDFDARMINWEPKGENILKIAKKFNINTNAMLFIDDNIAELENTKITGVKTLLCDENILYKIKLFPNLLKLSNTKEDQIRAKDIAANALREELKSLSDEEYFQNLEISLNFSKNDLQNIPRISELLGKTNQFIANYTRLNQEKVAQHMQKELIVSVSMSDKLSDSGIIAIFVFSCKEGNLFIDDLCISCRALGRKLETRMFFKAFELALHFFDLKNNNARLYYQKGERNMPFLSFLEQISKEFEKNSALIPFQNLNFKGLIIHEN | not soluble |
| MGSDKIHHHHHHMNNQEKNMLGFNQDEYLTSAREIIAARQKAEQVADEIYQAGFSSLFFASVGGSLAPMMAINEFAKELTTLPVYVEQAAELIHKGNKRLNKDSVVITLSKSGDTKESVAIAEWCKAQGIRVVAITKNADSPLAQAATWHIPMRHKNGVEYEYMLLYWLFFRVLSRNNEFASYDRFASQLEILPANLLKAKQKFDPQADAIASRYHNSDYMMWVGGAEMWGEVYLFSMCILEEMQWKRTRPVSSAEFFHGALELLEKDVPLILVKGEGKCRALDERVERFASKITDNLVVIDPKAYALDGIDDEFRWIMAPCVVSTLLVDRLAAHFEKYTGHSLDIRRYYRQFDY | soluble |
| MGSDKIHHHHHHMNRKLIQIDQLKNQLTQYRPLSESEVKRLREEFIIESSYNSNAIEGNTITLRETVLILKEGMTIAEKPLREHLDIIGFKDAFNYIYELVANNEPLSERTIKDIHSLVLMNNAEGRGVYRKIPVRILGAENEPTAPYLIAEEMQSLIEKYQQKLTALHPIEAISWLHLAFESIHPFIDGNGRTGRLLINFELLKHGYLPVDIKFTHRANYYQCFDDFHKNQQDISRLVELISRYELTELERYLAILEQRT | not soluble |
| MGSDKIHHHHHHMNRRDLLVGLGAATLVPKASWADAHNPAFLSAAQAPDGNYHLCGLDPRGDVVFSIPLPGRGHAAAAHPTRPEAVAFARRPGRFALILDCVTGQETARLLPPPNRHFYGHGTFSSDGDVLFTTENDLTTLEGRIGLWDAAHGYVRLGDVPSGGIGPHDIARLPGTETLVIANGGIATHPDSGRTPLNPATMRSNLAYMRTDGTLLERVELDVTLRQNSIRHLSIRDDGLVSAGMQWNGAEGEHPPLTLLHRIGAAPRLLAAPTQTHRQLDGYVGSISFDQAGAHVAVTSPRGGTVHIFDVNSGAFAGLITAEDICGLALSHRAGLIATTGQGITGFVAQDDLTQMRHSSWRWDNHIVAI | not soluble |
| MGSDKIHHHHHHMNSINKNQPEKNHEDLKNKDSIDKIIELASDQTCFLCTTQGAKGNARPMAVQKVDKQGNIWFLSASDSNQNKEIQENSSVNLYFKGNQHSDFMHLYGEATVLRDETIIKELWNPVLKTWFTEGENDPRITIIKFTTKEGYYWDTKHGNFIAGIKMLIGAATGQTLDDSIEGSLQNQPVHNTHISHG | not soluble |
| MGSDKIHHHHHHMNSTMQVLVIGGTGTLGRQIAKNAIDAGHKVRCMVRKPKAASFLQEWGCELTRGNLLNKEDIEYALDGIDAVIDAATSRPDDPRSVYETDWDGKLNLFNACEEKNVKRVVFLSLLAAEKYREIPLMDIKYCTEELLVSSSLDYTILQGVAFMQGAIGQFAIPILNNEPVWISGNPTDIAYMNTQDIARFAVAALDRPQTIKGRFPIVGPKAWSAKGLVDLCEKFSEKRARVLKVSPTIISIAQSVVSFFEPTLNVAERLSFSELSGSGGKLDAPMEDTYTAFGLNPADTTTMEGYIKEYYGVILKRLKDIGVDLDIEEKKKFPI | not soluble |
| MGSDKIHHHHHHMNVLEQFYQLGWTLDSAGGASGEAYMAEQDGQKLFLKRNSNPFIAALSAEGIVPKLVWTKRIETGEVVTAQHWKNGRELNEDEMNQTRVAELLHKIHGSRPLLTMLKRMEMEPITPDIMLNKINASLSREVLTHHVVRRALTYLEDHIPNLDARFFTVVHGDVNHNNWLLSDRDELYLVDWEGAMIADPAIDIGMLLYNYVPQNKWSQWFKTYGVEESVNLNKRMKWYTVIQAIGLIQWYEEQKRYRDMNTWLKFLNEVMNSNLFI | not soluble |
| MGSDKIHHHHHHMNYKLISIDLAKTVFQVAAFNPDNTIAFNRKINRPALLDMLRQCEPTLVVMEACYSANYWGRTIEKLGHTVKLIPARMVKAMLVGNKNDANDAVAIGETAGRPKVSLLRPKTVEQQDIQSLLRIRERLVENRTANCNQLRGFLAEYGLIVAKTRRQLMLAIPLILEDADNELSTVARGFIQRLYEFQLYLNEQIDQVAQDILALAQAMPQYPLLLTIPGVGPIVASTLLASINEVNDFKNGRQLAAWLGLTPSQYSSGTTNRLGKITKRGNQTLRRLLIHGARTVVNWCDKKDDSLSLWLQRLKQRQHVCKVTVALANKMARMVFVVMSRGQAFDMNKACKLAT | not soluble |
| MGSDKIHHHHHHMNYKPEIAIIESNTLTCLGLKSILEEIIPMATIRTFHSFSELMDDTPDMYAHYFISAQIYVEHNAFFLPRKRKTIVLASDSPQFQLSGVPVLNIYEPEEKLVKSLLKLHQHAHHNGYPVKDMPPIAMPEVHQEILSAREIEVLVLITKGLINKEIADKLNISLTTVITHRKNITEKLGIKSVSGLTIYAVMNGYIEADRI | not soluble |
| MGSDKIHHHHHHMNYPTTRLNWPRAWRVIPSRFPAVGLFERVASPDDFDALYALEAMTNDRLRDEVGDISLVPPEERLFGPGSTCIMAAFTHLNPQGSRFSDGSYGVFYCARKRDTAIAETRYHSARFMQATREPPMRLQMRLYSVQARGEAADLRVASKSDPRIVAPDDYSYPQAIGRSLRAAGALGIVYPSVRHSGGGCLAALRTGIVKNCLHAAYLEYNWNGEGIDAVFEVNRVL | not soluble |
